Source: patent US20250243261A1

How the values were obtained:
[1] = biological target: SARS-CoV-2 Omicron-variant receptor binding domain (RBD) (SARS-CoV-2 Omicron variant); test: BLI, IgG
[2] = biological target: SARS-CoV-2 Beta-variant Spike with two stabilizing proline substitutions (S-2P) (SARS-CoV-2 Beta variant); test: BLI, IgG, single replicate
[3] = biological target: SARS-CoV-2 Beta-variant Spike with two stabilizing proline substitutions (S-2P) (SARS-CoV-2 Beta variant); test: BLI, Fab
[4] = biological target: SARS-CoV-2 Omicron-variant receptor binding domain (RBD) (SARS-CoV-2 Omicron variant); test: BLI, Fab
[5] = biological target: SARS-CoV-2 XBB.1.5 Spike RBD (SARS-CoV-2 XBB.1.5 variant); test: BLI, IgG
[6] = biological target: SARS-CoV-2 BQ.1.1 Spike RBD (SARS-CoV-2 BQ.1.1 variant); test: BLI, IgG
[7] = biological target: SARS-CoV-2 XBB Spike RBD (SARS-CoV-2 XBB variant); test: BLI, IgG

B1: REGN10987 WT IgG (antibody, V domains shown)
VH: QVQLVESGGGVVQPGRSLRLSCAASGFTFSNYAMYWVRQAPGKGLEWVAVISYDGSNKYYADSVKGRFTISRDNSKNTLYLQMNSLRTEDTAVYYCASGSDYGDYLLVYWGQGTLVTVSS
VL: QSALTQPASVSGSPGQSITISCTGTSSDVGGYNYVSWYQQHPGKAPKLMIYDVSKRPSGVSNRFSGSKSGNTASLTISGLQSEDEADYYCNSLTSISTWVFGGGTKLTVL
- Kd [1]: 700 nM
- Kd [2]: 0.09 nM

B2: REGN10987 WT Fab (Fab, V domains shown)
VH: B1 VH
VL: B1 VL
- Kd [3]: 13 nM
- Kd [4]: 23000 nM

B3: SA58 WT IgG (antibody, V domains shown)
VH: QVQLAQSGSELRKPGASVKVSCDTSGHSFTSNAIHWVRQAPGQGLEWMGWINTDTGTPTYAQGFTGRFVFSLDTSARTAYLQISSLKADDTAVFYCARERDYSDYFFDYWGQGTLVTVSS
VL: EVVMTQSPASLSVSPGERATLSCRARASLGISTDLAWYQQRPGQAPRLLIYGASTRATGIPARFSGSGSGTEFTLTISSLQSEDSAVYYCQQYSNWPLTFGGGTKVEIK
- Kd [5]: 2400 nM
- Kd [6]: < 0.001 nM
- Kd [7]: 7400 nM
